Assay results published in patent US20240301052A1 (LANOVA MEDICINES DEVELOPMENT, published 2024).
Residue numbers refer to the chain shown, from its start. Read-outs that look alike come from different tables or passages of the source.

B1: 63A11D5B4.p1.z6 hIgG1 (antibody, V domains shown)
VH: QVQLVQSGAEVKKPGASVKVSCKTSGYTFITYNMHWVRQAPGQGLEWIGAIYPGSGDTSYNQKFKGRVTMTADTSTSTVYMELSSLRSEDTAVYYCSISTIITTGAVDYWGQGTLVTVSS
VL: DIQMTQSPSSLSTSVGDRVTITCKASQDVGTAVAWYQQKPGKSPKLLIYWTSTRHTGVPSRFSGSGSGTDFTLIISSLQPEDVATYYCQQYSRIPLTFGGGTKVEIK
notes: humanized hIgG1
B2: 63A11D5B4.p1.z1 hIgG1 (antibody, V domains shown)
VH: B1 VH with T24A, I48M, A72R, S97A, I98S
VL: B1 VL with T13A, S43V, I74T
notes: humanized hIgG1
B3: 63A11D5B4.p1.z2 hIgG1 (antibody, V domains shown)
VH: B1 VH with T24A, I48M, A72R, S97A, I98S
VL: B1 VL
notes: humanized hIgG1
B4: 63A11D5B4.p1.z3 hIgG1 (antibody, V domains shown)
VH: B1 VH with T24A, I48M, A72R, S97A, I98S
VL: B1 VL with K42Q, S60D, S76R, Y87F
notes: humanized hIgG1
B5: 63A11D5B4.p1.z4 hIgG1 (antibody, V domains shown)
VH: B1 VH with T24A, I48M, A72R, S97A, I98S
VL: B1 VL with Q3V, K42Q, S60D, S63T, S76R, Y87F, G100S
notes: humanized hIgG1
B6: 63A11D5B4.p1.z7 hIgG1 (antibody, V domains shown)
VH: B1 VH
VL: B1 VL with K42Q, S60D, S76R, Y87F
notes: humanized hIgG1
B7: 63A11D5B4.p1.z8 hIgG1 (antibody, V domains shown)
VH: B1 VH
VL: B1 VL with Q3V, K42Q, S60D, S63T, S76R, Y87F, G100S
notes: humanized hIgG1
B8: 63A11D5B4.p1.z10 hIgG1 (antibody, V domains shown)
VH: B1 VH with K12V, V20M, M70L, T74K, V79A
VL: B1 VL
notes: humanized hIgG1
B9: 63A11D5B4.p1.z11 hIgG1 (antibody, V domains shown)
VH: B1 VH with K12V, V20M, M70L, T74K, V79A
VL: B1 VL with K42Q, S60D, S76R, Y87F
notes: humanized hIgG1
B10: 63A11D5B4.p1.z12 hIgG1 (antibody, V domains shown)
VH: B1 VH with K12V, V20M, M70L, T74K, V79A
VL: B1 VL with Q3V, K42Q, S60D, S63T, S76R, Y87F, G100S
notes: humanized hIgG1
B11: 63A11D5B4.p1.z14 hIgG1 (antibody, V domains shown)
VH: B1 VH with V5Q, K12V, V20M, R38K, L45R, V68A, M70L, T74K, V79A, L115S
VL: B1 VL
notes: humanized hIgG1
B12: 30H9B8F9.p1.z10 hIgG1 (antibody, V domains shown)
VH: QVQLVQSGAEVVKPGASVKVSCKTSGYTFTTNNMHWVRQAPGQGLEWIGAIYPGSGATAYNQKFKGRVTLTADKSTSTAYMELSSLRSEATAVYYCARGMYGHGAMDYWGQGTLVTVSS
VL: DIQLTQSPSFLSASVGDRVTITCKASQDVGTAVAWYQQKPGKSPKLLIYWATTRHSGVPDRFSGSGSGTEFTFTISSLQPEDFATYFCQQYSSNPLTFGQGTKLEIK
notes: humanized hIgG1

Columns and labels:
human SLC34A2 [1] = biological target: T1, human SLC34A2 (human, UniProt O95436 1-690); test: FACS, OVCAR3 cells
T1 construct: whole, on cells; also called human solute carrier 34 A2; NaPi2b
T1 sequence (looked up): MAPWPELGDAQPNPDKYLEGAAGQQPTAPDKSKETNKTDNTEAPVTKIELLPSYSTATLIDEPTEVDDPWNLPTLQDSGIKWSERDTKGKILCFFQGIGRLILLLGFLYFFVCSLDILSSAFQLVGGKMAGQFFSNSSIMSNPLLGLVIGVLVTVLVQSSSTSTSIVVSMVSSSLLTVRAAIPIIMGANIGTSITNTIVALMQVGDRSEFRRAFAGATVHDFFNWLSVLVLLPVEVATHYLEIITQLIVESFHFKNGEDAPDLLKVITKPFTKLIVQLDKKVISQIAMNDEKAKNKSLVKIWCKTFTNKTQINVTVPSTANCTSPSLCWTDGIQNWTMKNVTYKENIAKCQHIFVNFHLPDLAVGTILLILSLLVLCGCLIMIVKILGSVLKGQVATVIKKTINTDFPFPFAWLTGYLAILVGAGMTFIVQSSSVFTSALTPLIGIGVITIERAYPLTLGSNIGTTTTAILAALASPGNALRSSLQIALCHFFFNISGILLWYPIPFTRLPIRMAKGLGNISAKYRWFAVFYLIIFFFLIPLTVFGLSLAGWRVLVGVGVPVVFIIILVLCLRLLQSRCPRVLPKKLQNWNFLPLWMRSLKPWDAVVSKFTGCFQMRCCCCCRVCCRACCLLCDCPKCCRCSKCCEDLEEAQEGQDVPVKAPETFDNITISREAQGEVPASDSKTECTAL

human SLC34A2 [2] = biological target: T1, human SLC34A2; test: FACS, OVCAR3 cells; remark: listed apart in the source
Procedure: The binding of these humanized antibodies to OVCAR3 cells was evaluated as described above, and the results are shown in FIG. 12A-D and Tables 16A-D.

Binder	EC50 (human SLC34A2 [1]) [nM]	Top (MFI) (human SLC34A2 [1])	EC50 (human SLC34A2 [2]) [nM]	Top (MFI) (human SLC34A2 [2])
B1	36.8	34600	–	–
B2	19.6	28000	–	–
B3	20.6	28700	–	–
B4	17.9	28600	–	–
B5	18.1	29000	–	–
B6	61.1	41000	–	–
B7	14.2	27900	–	–
B8	12.3	29800	–	–
B9	10.3	27700	–	–
B10	11.7	31700	–	–
B11	16.1	32600	–	–
B12	–	–	1.93	30700
